Source: article PMC7666158

B1: Sbit-ATF2(19–100), ATF2 TAD wild type (NanoBiT probe) [human] / Lbit-JNK1 (NanoBiT probe) [human] (parent)
chain 1: MSDDKPFLCTAPGCGQRFTNEDHLAVHKHKHEMTLKFGPARNDSVIVADQTPTPTRFLKNCEEVGLFNELASPFENEFKKAS
chain 2: MSRSKRDNNFYSVEIGDSTFTVLKRYQNLKPIGSGAQGIVCAAYDAILERNVAIKKLSRPFQNQTHAKRAYRELVLMKCVNHKNIIGLLNVFTPQKSLEEFQDVYIVMELMDANLCQVIQMELDHERMSYLLYQMLCGIKHLHSAGIIHRDLKPSNIVVKSDCTLKILDFGLARTAGTSFMMTPYVVTRYYRAPEVILGMGYKENVDLWSVGCIMGEMVCHKILFPGRDYIDQWNKVIEQLGTPCPEFMKKLQPTVRTYVENRPKYAGYSFEKLFPDVLFPADSEHNKLKASQARDLLSKMLVIDASKRISVDEALQHPYINVWYDPSEAEAPPPKIPDKQLDEREHTIEEWKELIYKEVMDLEERTKNGVIRGQPSPLGAAVINGSQHPSSSSSVNDVSSMSTDPTLASDTDSSLEAAAGPLGCCR

Variants of: B1
Assay: NanoBit luciferase complementation in HEK293T cells
Settings: with Lbit-JNK1 (NanoBiT probe) [human]; anisomycin (30 min); normalized to control (−) = 1.0; read off a plot; scale: relative luminescence intensity
With chain 1 K30E the response was 1.
